# Patent US20260078341A1 (published 2026)
# Changes are numbered by the printed parent chain.
# B1: P2-4BBZ CAR (other)
# chain: DYKDDDDKEVQLVQSGAEVKKPGSSVKVSCKASGGTFSSYAISWVRQAPGQGLEWMGGIIPIFGTANYAQKFQGRVTITADESTSTAYMELSSLRSEDTAVYYCAREEGPYCSSTSCYAAFDIWGQGTLVTVSSGGGGSGGGGSGGGGSQSVLTQDPAASVALGQTVKITCQGDSLRSYFASWYQQKPGQAPTLVMYARNDRPAGVPDRFSGSKSGTSASLAISGLQSEDEADYYCAAWDDSLNGYLFGAGTKLTVLTTTPAPRPPTPAPTIASQPLSLRPEACRPAAGGAVHTRGLDFACDIYIWAPLAGTCGVLLLSLVITLYCKRGRKKLLYIFKQPFMRPVQTTQEEDGCSCRFPEEEEGGCELRVKFSRSADAPAYKQGQNQLYNELNLGRREEYDVLDKRRGRDPEMGGKPRRKNPQEGLYNELQKDKMAEAYSEIGMKGERRRGKGHDGLYQGLSTATKDTYDALHMQALPPR
# B2: C10-BBZ CAR (other)
# chain: B1 chain with A119G, A159V
# B3: P3-5BBZ CAR (other)
# chain: B1 chain with M56V, T77K, T84A, A119G, A159V, F180L, M196T
# Target: T1, EGFR on cells (tumor lines, primary cell lines, K562 cells electroporated with EGFR mRNA, A431) (UniProt P00533 25-1210)
# Assay: not stated; affinity of the scFv
row,Kd [nM],Binder
1,15.4,B1
2,264,B2
3,88.2,B3

# Target: T1, EGFR on cells (tumor lines, primary …)
# Assay: not stated; affinity of the scFv
# Remark: another data set of the same source
row,Kd [nM],Binder
1,15.4,B1
2,264,B2
3,88.2,B3
